Laboratory results reported in patent US20200385463A1 (LANOVA MEDICINES, published 2020).
Positions count from the first letter of the chain named. Names and notes keep the numbering of the source.

B1: 78E8G9G6 chimeric antibody (antibody, V domains shown)
VH: QVQLKESGPGLVAPSQSLSITCTVSGFSLISYGVHWVRQPPGKGLEWLGVIWAGGRTNYNSALMSRLSISKDNSKSQVFLKMNSLQTYDTAMYYCARDRYGGNSLDYWGQGTSVTVSS
VL: DIVMTQSPSSLTVTAGEKVTMNCRSIQSLLNSGNQKNYLSWYQQKPGQPPKLLIYWASTRESGVPDRFTGSGSGTDFTLTIRSVLDEDLAVYYCQNSYSYPFTFGSGTKLEMK
B2: 72C1B6A3 chimeric antibody (antibody, V domains shown)
VH: QVQLQQSGGELVKPGASVKMSCKAFGYTFTTYPIEWMKQNHGKSLEWIGNFHPYNDDTKYNEKFKGKAKLTVEKSSSTVYLEVSRLTSDDSAVYYCARRAYGYPYAMDYWGQGTSVTVSS
VL: DIVMTQSPSSLTVTAGEKVTMSCKSSQSLLNSGNQKNYLTWYQQRPGQPPKLLIYRASSRESGVPVRFTGSGSGTDFTLTISSVQAEDLAVYYCQNDYIYPYTFGGGTKLEMN
B3: 12F1F4 chimeric antibody (antibody, V domains shown)
VH: QVQLKESGPGLVAPSQSLSITCTVSGFSLINYGVSWVRQPPGKGLEWLGVIWGDGNTNYQSALRSRLSIRKDTSKSQVFLKLNSVHTDGTATYYCAKVGRGNAMDHWGQGISVIVSS
VL: DIVMTQSPSSLTVTARERVSMTCKSSQSLFNSGNQRNYLTWYQQKPGQPPKLLIYWSSTRESGVPDRFTGSGSGTDFTLTISSVQAEDLAIYFCQNNYYYPFTFGSGTKLEIK
B4: 64G11B4 chimeric antibody (antibody, V domains shown)
VH: QVQLHQSGTELVRPGTSVKVSCKASGYAFTNYLLEWVKQRPGQGLEWIGEINPGNGGSNYNEKFKGKATLTADKSSSTAYMQLSSLTSVDSAVYFCARIYYGNSFAYWGQGTLVTVSA
VL: DIVMTQSPSSLTVTAGEKVTMNCKSSQSLLNSGNQRNYLTWYQQKPGQPPKLLIYWASTRESGVPDRFTGSGSGTDFTLTISSVQADDLAVYYCQNDYFYPFTFGAGTNLELK
B5: 4F11E2 chimeric antibody (antibody, V domains shown)
VH: DVQLVESGGGLVQPGGSRKLSCAASGFTFSTFGMHWVRQAPEKGLEWVAYITSGNSPIYFTDTVKGRFTISRDNPKNTLFLQMTSLGSEDTAVYYCARSSYYGNSMDYWGQGTSVTVSS
VL: DIVMTQSPSSLTVTAGEKVTLTCRSSQSLLNSGNRKNYLTWYQQIPGQPPKLLIYWASTRESGVPDRFTGSGSGTYFTLTISSVQAEDLAVYYCQNAYSYPFTFGSGTKLEKK
B6: 103F6D3 chimeric antibody (antibody, V domains shown)
VH: QVQLQQSGAELARPGASVKMSCKASGYTFPTYSIHWLKQGPGQGLEWIGYINPNTIYTNYNQKFKYKTTLTADKSSSTAYIQLSSLTSDDSAVYYCAREGYGRGNAMDYWGQGTSVTVSS
VL: B5 VL with L11Q, T22S, S32G, R35Q, I45K, L79F, S99F, S106A, K112L
B7: 120B7B2 chimeric antibody (antibody, V domains shown)
VH: EVQLQQSGPELVKPGASVKMSCKASGYTFTGYIIQWMKQKPGLGLEWIGFINPYNDGTKYNEQFKGKATLTSDKSSNAAYMELSSLTSEDSAVYYCARAYFGNSFAYWGQGTLVTVSA
VL: DIVMTQSPSSLTVTAGEKVTMSCKSSQSLLNSGNQKNYLTWYQQRPGQPPKLLMYWASTRESGVPDRFTGSGSGTDFTLTISSGQAEDLAIYFCQNGYYFPFTFGSGTKLETK
B8: 4F11E2 -HC N55Q-LC S32A (antibody, V domains shown)
VH: EVQLVESGGGLVQPGGSLRLSCAASGFTFSTFGMHWVRQAPGKGLEWVSYITSGQSPIYFTDTVKGRFTISRDNAKNSLYLQMNSLRAEDTAVYYCARSSYYGNSMDYWGQGTLVTVSS
VL: DIVMTQSPDSLAVSLGERATINCRSSQSLLNAGNRKNYLTWYQQKPGQPPKLLIYWASTRESGVPDRFSGSGSGTDFTLTISSLQAEDVAVYYCQNAYSYPFTFGGGTKLEIK
B9: 120B7B2 (HC G57D S104A/LC S32A G97A) (antibody, V domains shown)
VH: QVQLVQSGAEVKKPGASVKVSCKASGYTFTGYIIQWVRQAPGQRLEWMGFINPYNDDTKYNEQFKGRVTITRDTSASTAYMELSSLRSEDTAVYYCARAYFGNAFAYWGQGTLVTVSS
VL: B8 VL with R24K, R35Q, S99Y, Y100F
B10: 72C1B6A3-HC WT-LC N31E (antibody, V domains shown)
VH: QVQLVQSGAEVKKPGASVKVSCKASGYTFTTYPIEWVRQAPGQRLEWMGNFHPYNDDTKYNEKFKGRVTITRDTSASTAYMELSSLRSEDTAVYYCARRAYGYPYAMDYWGQGTLVTVSS
VL: B8 VL with R24K, N31E, A32S, R35Q, W56R, T59S, A97D, S99I, F102Y
B11: 4F11E2 (HC N55E/LC S32A) (antibody, V domains shown)
VH: B8 VH with Q55E
VL: B8 VL
B12: 72C1B6A3 (HC WT/LC S32A) (antibody, V domains shown)
VH: B10 VH
VL: B8 VL with R24K, R35Q, W56R, T59S, A97D, S99I, F102Y
B13: 4F11E2 -HC N55Q-LC N31E (antibody, V domains shown)
VH: B8 VH
VL: B8 VL with N31E, A32S
B14: 120B7B2-HC G57D&S104A-LC-N96E&N31E (antibody, V domains shown)
VH: B9 VH
VL: B8 VL with R24K, N31E, A32S, R35Q, N96E, A97G, S99Y, Y100F

target: Human claudin 18.2 (CLDN18.2), wild-type (human); experiment: cell-based or functional assay

Compared with B1, B2 is higher in “EC50 (pM), ADCC Reporter Bioassay (luciferase; Jurkat effector cells with FcγRIIIa V158 and NFAT response element)” value: 15.9 pM for the first, 46.3 pM for the second.

Compared with B3, B4 is higher in “EC50 (pM), ADCC Reporter Bioassay (luciferase; Jurkat effector cells with FcγRIIIa V158 and NFAT response element)” value: 36.8 pM for the first, 126 pM for the second.

Going from B5 to B6, the “EC50 (pM), ADCC Reporter Bioassay (luciferase; Jurkat effector cells with FcγRIIIa V158 and NFAT response element)” value rises from 22.2 pM to 79.5 pM.

B7 was tested, and the “EC50 (pM), ADCC Reporter Bioassay (luciferase; Jurkat effector cells with FcγRIIIa V158 and NFAT response element)” value was 5.81 pM.

target: Human claudin 18.2 (CLDN18.2), wild-type (human); experiment: cell-based or functional assay; remark: another data set of the same source

Compared with B8, B9 is lower in “EC50 (pM), ADCC Reporter Bioassay (luciferase, Jurkat effector cells)” value (from here on “EC50 (pM) … (luciferase, Jurkat effector cells)”): 414 pM for the first, 114 pM for the second.

Going from B10 to B11, the “EC50 (pM) … (luciferase, Jurkat effector cells)” value falls from 1650 pM to 148 pM.

Compared with B12, B13 is higher in “EC50 (pM) … (luciferase, Jurkat effector cells)” value: 190 pM for the first, 238 pM for the second.

For B14, the “EC50 (pM) … (luciferase, Jurkat effector cells)” value was 493 pM.
